Experimental data taken from PMC13233820, “Recruitment of Mre11 to recombination sites during meiosis” (Nature Communications, 2026).

How the values were obtained:
HisSUMO-Mer2 (wild type) = experiment: Co-expression pull-down assay (NiNTA, anti-MBP immunoblot); format: binding, Saccharomyces cerevisiae; conditions: co-expressed in E. coli
Description: Wild-type and mutant MBP-tagged Mre11-C49 and HisSUMO-tagged Mer2 were co-expressed in 50 mL of E. coli BL21 cultures and purified by affinity chromatography on Ni-NTA resin following a procedure similar to that described above. Briefly, cells were lysed by sonication and centrifuged at maximum speed for 30 mins at 4 °C on a table-top centrifuge. A small fraction of the supernatant was collected as ‘Input’ and the remainder was incubated with 120 µL Ni-NTA resin, pre-equilibrated with wash buffer (25 mM HEPES pH 7.5, 20 mM imidazole, 0.1 mM DTT, 0.1 mM PMSF, 10% glycerol), for 1 hour on a rotating wheel at 4 °C. The resin was washed twice with 2 ml in batch and five times with 2 ml on column before eluting with 250 µL of 500 mM imidazole in wash buffer. Input and elution fractions were separated by SDS-PAGE followed by immunoblotting with primary murine anti-MBP monoclonal antibody at 1:10,000 dilution (E8032S, NEB) and secondary goat anti-mouse IgG-HRP conjugated at 1:10,000 dilution (AP308P, Chemicon).

Mer2 = experiment: Yeast two-hybrid; format: binding, Saccharomyces cerevisiae; conditions: SC-Leu-Ura-His + 25 mM 3-AT
Description: Bait and prey plasmids were co-transformed into yWL365 using the standard ‘LiAc’-based transformation and plated on SC-Leu-Ura selective media. At least four independent transformants were tested for Mer2-Mre11 interaction by spotting a dilution series on SC-Leu- Ura-His + 25 mM 3-AT (3-amino-1,2,4-triazole) and growing for 4-5 days at 30 °C.

B1: Mre11-LLK: Mre11 (or its C49 fragment) with LLK residues mutated to alanine (protein, UniProt P32829 1-692, looked up, variant L683A L686A K690A)
Double-strand break repair …: MDYPDPDTIRILITTDNHVGYNENDPITGDDSWKTFHEVMMLAKNNNVDMVVQSGDLFHVNKPSKKSLYQVLKTLRLCCMGDKPCELELLSDPSQVFHYDEFTNVNYEDPNFNISIPVFGISGNHDDASGDSLLCPMDILHATGLINHFGKVIESDKIKVVPLLFQKGSTKLALYGLAAVRDERLFRTFKDGGVTFEVPTMREGEWFNLMCVHQNHTGHTNTAFLPEQFLPDFLDMVIWGHEHECIPNLVHNPIKNFDVLQPGSSVATSLCEAEAQPKYVFILDIKYGEAPKMTPIPLETIRTFKMKSISLQDVPHLRPHDKDATSKYLIEQVEEMIRDANEETKQKLADDGEGDMVAELPKPLIRLRVDYSAPSNTQSPIDYQVENPRRFSNRFVGRVANGNNVVQFYKKRSPVTRSKKSGINGTSISDRDVEKLFSESGGELEVQTLVNDLLNKMQLSLLPEVGLNEAVKKFVDKDEKTALKEFISHEISNEVGILSTNEEFLRTDDAEEMKALIKQVKRANSVRPTPPKENDETNFAFNGNGLDSFRSSNREVRTGSPDITQSHVDNESRITHISQAESSKPTSKPKRVRTATKKKIPAFSDSTVISDAENELGDNNDAQDDVDIDENDIIMVSTDEEDASYGLLNGRKTKTKTRPAASTKTASRRGKGRASRTPKTDIAGSALAKARK
- Interaction with Mer2 in pulldown (in words) (HisSUMO-Mer2 (wild type)): strongly decreased the interaction
- Yeast two-hybrid interaction with Mer2 (in words) (Mer2): abolished the interaction
